For one assay, the target named is mPDL-1 (mouse) (UniProt Q9EP73). Kind of assay: mPD-1/mPD-L1 binding inhibition.
For another assay, the target named is mPD-1 (mouse) (UniProt Q02242). Kind of assay: mPD-1/mPD-L1 binding inhibition.

pIC50: −log10 of the molar value.

mPDL-1 (mouse), sequence (Q9EP73 19-239): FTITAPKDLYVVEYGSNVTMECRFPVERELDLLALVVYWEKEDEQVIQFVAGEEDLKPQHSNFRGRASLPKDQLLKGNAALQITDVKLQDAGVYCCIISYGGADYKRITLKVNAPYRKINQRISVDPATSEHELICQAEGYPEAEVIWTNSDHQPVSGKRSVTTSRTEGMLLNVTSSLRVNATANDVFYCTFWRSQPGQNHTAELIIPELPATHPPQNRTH
mPD-1 (mouse), sequence (Q02242 25-169): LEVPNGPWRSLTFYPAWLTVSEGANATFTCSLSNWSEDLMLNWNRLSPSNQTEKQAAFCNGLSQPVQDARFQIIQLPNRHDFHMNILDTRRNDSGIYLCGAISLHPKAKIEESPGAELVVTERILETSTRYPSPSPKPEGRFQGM

With Clone 10F.9G2, the pIC50 – broadly, the negative decadic logarithm of the IC50, by convention in mol/L – with mPDL-1 (mouse) was 8.96.

Clone RMPI-14 had a pIC50 in the assay with mPD-1 (mouse) of 7.51.

For the origin of these results see US20260146091A1.
